Kd data for 3 compounds are collected here from paper PMC2844702 (Chemistry & biology, 2009).

The target in assay [1] is TrkA 97-120 (UniProt P04629). To be noted: cited from earlier work.
The target of assay [2] is TrkA (UniProt P04629). As to conditions: cited from earlier work.
Assay [3] has as its target TrkB (UniProt Q16620). To be noted: cited from earlier work.
The target in assay [4] is TrkB. The assay is classed as binding.

Sequence of UniProt Q16620 (Q16620 32-430): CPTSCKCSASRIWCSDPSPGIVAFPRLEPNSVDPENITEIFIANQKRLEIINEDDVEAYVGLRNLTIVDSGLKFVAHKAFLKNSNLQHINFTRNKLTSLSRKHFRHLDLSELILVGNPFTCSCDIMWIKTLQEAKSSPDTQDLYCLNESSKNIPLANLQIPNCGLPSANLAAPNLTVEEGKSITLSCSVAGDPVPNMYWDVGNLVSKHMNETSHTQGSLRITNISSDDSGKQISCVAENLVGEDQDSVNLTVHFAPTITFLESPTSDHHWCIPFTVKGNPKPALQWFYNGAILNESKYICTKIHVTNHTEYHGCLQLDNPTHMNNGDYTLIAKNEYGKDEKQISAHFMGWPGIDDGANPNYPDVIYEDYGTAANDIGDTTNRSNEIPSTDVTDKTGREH

As for NGF (from UniProt P01139), the Kd in assay [1] was 1.3 nM; in assay [2], 1 nM.

For BDNF (from UniProt P23560), in assay [3], the equilibrium dissociation constant (Kd) is 1 nM. As to `CN(C)CCC=C1c2ccccc2CCc2ccccc21` [amitriptyline], the Kd in assay [4] was ~14000 nM.
